The Immune Epitope Database (IEDB)

Key:
HLA-B*44:03 = experiment: IEDB peptide-MHC binding, purified MHC/competitive/radioactivity; filed as Kd, often an IC50 or EC50 that approximates it; ≥ and ≤ were set here for values at or beyond the usual limits of such assays
HLA-A*02:01 = experiment: IEDB peptide-MHC binding, purified MHC/competitive/fluorescence; ≥ and ≤ were set here for values at or beyond the usual limits of such assays
HLA-A*32:01 = experiment: IEDB peptide-MHC binding, purified MHC/competitive/radioactivity; filed as Kd, often an IC50 or EC50 that approximates it; ≥ and ≤ were set here for values at or beyond the usual limits of such assays
HLA-A*24:02 = experiment: as above
HLA-A*26:01 = experiment: as above
HLA-A*01:01 [1] = experiment: as above
HLA-A*23:01 = experiment: as above
HLA-A*29:02 = experiment: as above
HLA-A*30:02 = experiment: as above
HLA-B*44:02 = experiment: as above
HLA-B*40:01 = experiment: as above
HLA-A*03:01 = experiment: as above; details: source organism: SARS coronavirus Tor2
HLA-A*31:01 = experiment: as above; details: source organism: SARS coronavirus Tor2
HLA-A*11:01 [2] = experiment: as above; details: source organism: SARS coronavirus Tor2
HLA-A*33:01 = experiment: as above; details: source organism: SARS coronavirus Tor2
HLA-A*68:01 = experiment: as above; details: source organism: SARS coronavirus Tor2
HLA-B*15:01 = experiment: IEDB peptide-MHC binding, purified MHC/direct/fluorescence; filed as Kd, often an IC50 or EC50 that approximates it; ≥ and ≤ were set here for values at or beyond the usual limits of such assays; details: source organism: Human immunodeficiency virus 1
HLA-A*11:01 [3] = experiment: as above; details: source organism: Human immunodeficiency virus 1
HLA-A*01:01 [4] = experiment: as above; details: source organism: Human immunodeficiency virus 1
HLA-A*02:03 = experiment: IEDB peptide-MHC binding, purified MHC/competitive/radioactivity; filed as Kd, often an IC50 or EC50 that approximates it; ≥ and ≤ were set here for values at or beyond the usual limits of such assays; details: source organism: Vaccinia virus WR
HLA-A*02:06 = experiment: as above; details: source organism: Vaccinia virus WR
HLA-A*02:02 = experiment: as above; details: source organism: Vaccinia virus WR
[5] = source organism: Dengue virus 1 Brazil/97-11/1997
[6] = source organism: SARS coronavirus Tor2
[7] = source organism: Triticum aestivum
[8] = source organism: Dengue virus 2 Jamaica/1409/1983
[9] = source organism: Dengue virus 3 Martinique/1243/1999
[10] = source organism: Lymphocytic choriomeningitis virus (strain Armstrong)
[11] = source organism: Vaccinia virus WR
[12] = source organism: Zaire ebolavirus
[13] = source organism: Lassa virus GA391
[14] = source organism: Mammarenavirus machupoense

Question: MENKAWLVH was tested. Which Kd (HLA-B*44:03; source organism: Dengue virus 2 16681-PDK53) did it give?
Answer: 168 nM

Question: How did the Kd (HLA-B*44:03; [5]) turn out when NELNHILLE was run?
Answer: 15300 nM

Question: For NLEDLIEWA, which IC50 (HLA-A*02:01; source organism: Vaccinia virus) is on record?
Answer: ≥ 137000 nM

Question: PNERRAWNSL was tested. Which Kd (HLA-A*32:01; source organism: Dengue virus 4 Dominica/814669/1981) did it give?
Answer: 1300 nM

Question: How did the IC50 (HLA-A*02:01; source organism: Variola virus) turn out when PVILSLPRI was run?
Answer: 1870 nM

Question: PVSIINNAVY was tested. Which Kd (HLA-A*24:02; [6]) did it give?
Answer: ≥ 70300 nM

Question: And the Kd (HLA-A*26:01; [6])?
Answer: 1580 nM

Question: What about the Kd (HLA-A*01:01 [1]; [6]) of the same sequence?
Answer: 10400 nM

Question: And the Kd (HLA-A*23:01; [6])?
Answer: ≥ 70000 nM

Question: What about the Kd (HLA-A*29:02; [6]) of the same sequence?
Answer: 101 nM

Question: And the Kd (HLA-A*30:02; [6])?
Answer: 601 nM

Question: With QFLGQQQPF as the sequence, how does the Kd (HLA-A*24:02; [7]) read?
Answer: 206 nM

Question: What about the Kd (HLA-A*26:01; [7]) of the same sequence?
Answer: ≥ 77900 nM

Question: What about the Kd (HLA-A*01:01 [1]; [7]) of the same sequence?
Answer: ≥ 78100 nM

Question: And the Kd (HLA-A*23:01; [7])?
Answer: 7750 nM

Question: And the Kd (HLA-A*29:02; [7])?
Answer: 1470 nM

Question: And the Kd (HLA-A*30:02; [7])?
Answer: 831 nM

Question: How did the Kd (HLA-B*44:02; [8]) turn out when REDQWCGSLI was run?
Answer: 373 nM

Question: And the Kd (HLA-B*44:03; [8])?
Answer: 888 nM

Question: For RENLLLGVGL, which Kd (HLA-B*40:01; [9]) is on record?
Answer: 2.47 nM

Question: And the Kd (HLA-B*44:02; [9])?
Answer: 21.4 nM

Question: And the Kd (HLA-B*44:03; [9])?
Answer: 292 nM

Question: How did the Kd (HLA-A*32:01; source organism: Dengue virus 4 Philippines/H241/1956) turn out when RLGYILEDI was run?
Answer: 7180 nM

Question: With RYQVVECKEV as the sequence, how does the Kd (HLA-A*24:02; [10]) read?
Answer: ≥ 70300 nM

Question: What about the Kd (HLA-A*26:01; [10]) of the same sequence?
Answer: ≥ 69700 nM

Question: What about the Kd (HLA-A*01:01 [1]; [10]) of the same sequence?
Answer: ≥ 70400 nM

Question: And the Kd (HLA-A*23:01; [10])?
Answer: ≥ 70000 nM

Question: What about the Kd (HLA-A*29:02; [10]) of the same sequence?
Answer: ≥ 71400 nM

Question: And the Kd (HLA-A*30:02; [10])?
Answer: 159 nM

Question: Which Kd (HLA-A*32:01; source organism: Vaccinia virus L-IPV) does the source give for SIINSNVTW here?
Answer: 11.1 nM

Question: How did the Kd (HLA-A*32:01; [9]) turn out when SKGWHDWQQV was run?
Answer: 1400 nM

Question: How did the Kd (HLA-A*32:01; [11]) turn out when STMDVNHPI was run?
Answer: 7.42 nM

Question: Which Kd (HLA-B*40:01; [8]) does the source give for TESHNQTFL here?
Answer: 16.3 nM

Question: TKIDSMFLM was tested. Which IC50 (HLA-A*02:01; source organism: Variola virus) did it give?
Answer: 38000 nM

Question: With TNSVIIMAY as the sequence, how does the Kd (HLA-A*24:02; [6]) read?
Answer: ≥ 77600 nM

Question: And the Kd (HLA-A*26:01; [6])?
Answer: 17300 nM

Question: And the Kd (HLA-A*01:01 [1]; [6])?
Answer: ≥ 25800 nM

Question: What about the Kd (HLA-A*23:01; [6]) of the same sequence?
Answer: ≥ 77800 nM

Question: And the Kd (HLA-A*29:02; [6])?
Answer: 84.5 nM

Question: What about the Kd (HLA-A*30:02; [6]) of the same sequence?
Answer: 2120 nM

Question: For TTFAEGVVA, which IC50 (HLA-A*02:01; [12]) is on record?
Answer: 50200 nM

Question: Which results are given for TVAYFNMVY?
Answer: Kd (HLA-A*03:01): 41.3 nM; Kd (HLA-A*24:02; [6]): 11000 nM; Kd (HLA-A*26:01; [6]): 14.2 nM; Kd (HLA-A*31:01): ≥ 56900 nM; Kd (HLA-A*11:01 [2]): 60.5 nM; Kd (HLA-A*01:01 [1]; [6]): 123 nM; Kd (HLA-A*33:01): ≥ 52000 nM; Kd (HLA-A*23:01; [6]): 14100 nM; Kd (HLA-A*68:01): 75.9 nM; Kd (HLA-A*29:02; [6]): 3.81 nM; Kd (HLA-A*30:02; [6]): 71 nM

Question: What does the source list for TVLDVGDAY?
Answer: Kd (HLA-B*15:01): 170 nM; Kd (HLA-A*11:01 [3]): 436 nM; Kd (HLA-A*01:01 [4]): 10200 nM

Question: For VELPNSLEEL, which Kd (HLA-B*40:01; [5]) is on record?
Answer: 29.2 nM

Question: How did the Kd (HLA-A*24:02; [6]) turn out when VFHLYLQYI was run?
Answer: 1090 nM

Question: And the Kd (HLA-A*26:01; [6])?
Answer: 90.7 nM

Question: What about the Kd (HLA-A*01:01 [1]; [6]) of the same sequence?
Answer: 198 nM

Question: What about the Kd (HLA-A*23:01; [6]) of the same sequence?
Answer: 566 nM

Question: And the Kd (HLA-A*29:02; [6])?
Answer: ≥ 71400 nM

Question: What about the Kd (HLA-A*30:02; [6]) of the same sequence?
Answer: ≥ 125000 nM

Question: With VFNGTSWFI as the sequence, how does the Kd (HLA-A*24:02; [6]) read?
Answer: ≥ 107000 nM

Question: What about the Kd (HLA-A*26:01; [6]) of the same sequence?
Answer: ≥ 77900 nM

Question: And the Kd (HLA-A*01:01 [1]; [6])?
Answer: ≥ 78100 nM

Question: What about the Kd (HLA-A*23:01; [6]) of the same sequence?
Answer: ≥ 77800 nM

Question: What about the Kd (HLA-A*29:02; [6]) of the same sequence?
Answer: ≥ 45400 nM

Question: What about the Kd (HLA-A*30:02; [6]) of the same sequence?
Answer: ≥ 93800 nM

Question: Which results are given for VFRTSTPKVV?
Answer: Kd (HLA-A*24:02; [13]): ≥ 70300 nM; Kd (HLA-A*26:01; [13]): ≥ 69700 nM; Kd (HLA-A*01:01 [1]; [13]): ≥ 70400 nM; Kd (HLA-A*23:01; [13]): ≥ 70000 nM; Kd (HLA-A*29:02; [13]): ≥ 71400 nM; Kd (HLA-A*30:02; [13]): ≥ 69700 nM

Question: How did the IC50 (HLA-A*02:01; [12]) turn out when VIPVYQVNN was run?
Answer: ≥ 340000 nM

Question: Which IC50 (HLA-A*02:01; [12]) does the source give for VISNSVAQA here?
Answer: 5790 nM

Question: For VMYAFTTPL, which Kd (HLA-A*02:03) is on record?
Answer: 1.28 nM

Question: And the Kd (HLA-A*32:01; [11])?
Answer: 0.291 nM

Question: And the Kd (HLA-A*02:06)?
Answer: 5.71 nM

Question: And the Kd (HLA-A*02:02)?
Answer: 0.573 nM

Question: Which IC50 (HLA-A*02:01; [12]) does the source give for VTLRKERLA here?
Answer: ≥ 360000 nM

Question: Which Kd (HLA-A*24:02; [14]) does the source give for WIEFTNFKV here?
Answer: ≥ 77500 nM

Question: What about the Kd (HLA-A*26:01; [14]) of the same sequence?
Answer: ≥ 77900 nM

Question: And the Kd (HLA-A*01:01 [1]; [14])?
Answer: ≥ 78100 nM

Question: What about the Kd (HLA-A*23:01; [14]) of the same sequence?
Answer: ≥ 77700 nM

Question: And the Kd (HLA-A*29:02; [14])?
Answer: 8070 nM

Question: What about the Kd (HLA-A*30:02; [14]) of the same sequence?
Answer: ≥ 49900 nM
